Columns and labels:
[1] = target: PSMA on intact LNCaP SEVs (human? (LNCaP cells), UniProt Q04609 1-750); assay: AuNP aggregate disassembly (plasmon peak shift); intact SEVs; 1x PBS pH 7.4; 37 C for 30 min stated for the initial 50 pM hrPSMA screening; settings: protein: native; chain copies: 2; label: 13 nm gold nanoparticles on Rev1 and Rev2; Control 1-16 paired with Rev1, 17-30 with Rev2; 3' portion single-stranded; many copies per aggregate
[2] = target: T1, hrPSMA (human recombinant Prostate Specific Membrane Antigen, Sinobiological) (human, UniProt Q04609 44-750); assay: AuNP aggregate disassembly (DLS); hrPSMA series; no significant trend; 1x PBS pH 7.4; 37 C for 30 min stated for the initial 50 pM hrPSMA screening; settings: protein: commercial; chain copies: 2; label: 13 nm gold nanoparticles on Rev1 and Rev2; Control 1-16 paired with Rev1, 17-30 with Rev2; 3' portion single-stranded; many copies per aggregate
T1 sequence (Q04609 44-750): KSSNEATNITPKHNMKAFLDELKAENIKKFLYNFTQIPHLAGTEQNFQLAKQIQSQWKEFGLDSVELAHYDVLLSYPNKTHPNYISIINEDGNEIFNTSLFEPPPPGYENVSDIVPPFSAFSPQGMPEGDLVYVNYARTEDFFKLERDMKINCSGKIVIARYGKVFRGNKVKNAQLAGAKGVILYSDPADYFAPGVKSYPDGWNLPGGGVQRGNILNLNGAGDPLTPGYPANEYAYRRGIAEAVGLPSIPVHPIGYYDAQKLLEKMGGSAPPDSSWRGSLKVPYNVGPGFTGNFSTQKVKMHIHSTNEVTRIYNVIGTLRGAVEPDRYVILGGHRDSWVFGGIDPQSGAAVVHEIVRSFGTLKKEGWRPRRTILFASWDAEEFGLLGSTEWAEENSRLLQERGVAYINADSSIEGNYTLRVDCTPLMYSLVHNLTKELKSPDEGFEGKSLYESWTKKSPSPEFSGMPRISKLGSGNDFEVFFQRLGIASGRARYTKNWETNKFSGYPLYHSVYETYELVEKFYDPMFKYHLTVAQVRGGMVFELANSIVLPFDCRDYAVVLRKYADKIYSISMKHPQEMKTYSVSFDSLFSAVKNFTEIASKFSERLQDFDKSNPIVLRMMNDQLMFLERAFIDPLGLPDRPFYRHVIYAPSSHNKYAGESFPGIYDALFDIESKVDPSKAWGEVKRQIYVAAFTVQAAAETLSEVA

[3] = target: T1, hrPSMA (human recombinant Prostate …); assay: AuNP aggregate disassembly (DLS size and count rate, plasmon shift); size change significant above 50 pM, count rate from 500 fM; detection thresholds, not Kd; 1x PBS pH 7.4; 37 C for 30 min stated for the initial 50 pM hrPSMA screening; settings: protein: commercial; chain copies: 2; label: 13 nm gold nanoparticles on Rev1 and Rev2; aPSMA 1-16 paired with Rev1, 17-30 with Rev2; 3' aptamer portion single-stranded; many copies per aggregate

Chain of PSMA on intact LNCaP SEVs (Q04609 whole entry): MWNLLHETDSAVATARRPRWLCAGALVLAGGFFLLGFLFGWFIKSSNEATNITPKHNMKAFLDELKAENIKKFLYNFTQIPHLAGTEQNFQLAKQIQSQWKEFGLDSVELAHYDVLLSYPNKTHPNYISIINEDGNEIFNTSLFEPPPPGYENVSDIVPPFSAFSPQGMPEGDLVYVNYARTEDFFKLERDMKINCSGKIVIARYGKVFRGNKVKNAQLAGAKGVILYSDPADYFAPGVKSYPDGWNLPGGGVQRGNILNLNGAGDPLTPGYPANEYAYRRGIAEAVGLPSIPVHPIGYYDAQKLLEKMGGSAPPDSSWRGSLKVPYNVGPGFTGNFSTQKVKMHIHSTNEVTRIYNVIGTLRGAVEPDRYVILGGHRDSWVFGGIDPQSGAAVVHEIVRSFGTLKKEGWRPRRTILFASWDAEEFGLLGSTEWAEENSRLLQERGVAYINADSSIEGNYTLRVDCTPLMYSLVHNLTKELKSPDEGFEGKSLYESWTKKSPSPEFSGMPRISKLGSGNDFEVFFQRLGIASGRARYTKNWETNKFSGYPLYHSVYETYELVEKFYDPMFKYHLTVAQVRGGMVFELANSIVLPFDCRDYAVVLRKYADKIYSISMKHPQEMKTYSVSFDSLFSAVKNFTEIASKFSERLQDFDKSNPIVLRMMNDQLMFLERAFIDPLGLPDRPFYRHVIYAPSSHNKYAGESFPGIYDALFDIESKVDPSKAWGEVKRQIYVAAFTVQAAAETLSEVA

Row | Binder | binding result [1] | binding result [2] | binding result [3]
1 | Control:Rev1:Rev2 (C-AuNPs-Aggregate) (structured_DNA, Rev1 3' C3 thiol; Rev2 5' C6 thiol) DNA 1: CTGTGACTCATCTGTGAAGGGCGGCGTTTTATATGTTACCGTCTAAGTACTCTGTTCCGCGCCGTGTGTTG DNA 2: CACAGATGAGTCACAG DNA 3: AAAACGCCGCCCTT | no binding | no binding | –
2 | aPSMA:Rev1:Rev2 (aPSMA-AuNPs-Aggregate) (structured_DNA, Rev1 3' C3 thiol; Rev2 5' C6 thiol) DNA 1: CTGTGACTCATCTGTGAAGGGCGGCGTTTTCGCTTTTGCGTTTTGGGTCATCTGCTTACGATAGCAATGCT DNA 2: CACAGATGAGTCACAG DNA 3: AAAACGCCGCCCTT | – | – | binds
